Columns and labels:
MK1966 = assay: SPR
MK1966 (benchmark) = assay: kinetic binding assay
hIL10R1 = assay: kinetic binding assay
cynoIL10 = assay: kinetic binding assay
Cyno IL10 = assay: SPR
[1] = target: T1, IL-10 (Accession no. P22301) (UniProt P22301 19-178); assay: kinetic binding assay
T1 chain: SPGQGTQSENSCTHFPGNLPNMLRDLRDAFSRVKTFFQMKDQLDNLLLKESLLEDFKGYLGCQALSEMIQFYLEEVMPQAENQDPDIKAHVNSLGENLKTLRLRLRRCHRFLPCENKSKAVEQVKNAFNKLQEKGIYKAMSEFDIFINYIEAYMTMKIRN

[2] = target: T1, IL-10 (Accession no. P22301); assay: SPR

B1: Human IL10 (ligand)
chain: SPGQGTQSENSCTHFPGNLPNMLRDLRDAFSRVKTFFQMKDQLDNLLLKESLLEDFKGYLGCQALSEMIQFYLEEVMPQAENQDPDIKAHVNSLGENLKTLRLRLRRCHRFLPCENKSKAVEQVKNAFNKLQEKGIYKAMSEFDIFINYIEAYMTMKIRN
Binder B1 has a Kd (MK1966) of 140 pM.

B2: hIL10 (ligand)
chain: SPGQGTQSENSCTHFPGNLPNMLRDLRDAFSRVKTFFQMKDQLDNLLLKESLLEDFKGYLGCQALSEMIQFYLEEVMPQAENQDPDIKAHVNSLGENLKTLRLRLRRCHRFLPCENKSKAVEQVKNAFNKLQEKGIYKAMSEFDIFINYIEAYMTMKIRN
B2 showed a Kd (MK1966 (benchmark)) of 26.6 pM.

B3: αIL-10R candidate (antibody, V domains shown)
VH: QVQLQESGPGLVKPSETLSLTCTVSGGSISSDYWSWIRQPAGKRLEWIGRIFTSGSTNYNPSLKSRVTMSVDTSKNQFSLKLNSLTAADTAVYYCARDDWYFDLWGRGTLVTVSS
VL: EIVMTQSPATLSVSPGERATLSCRASQSVSNNLAWYQQKPGQAPRFLIYGASTRATGMPARFSGSGSGTEFTLTISSLQSEDFAVYFCQQYNEWPWTFGQGTKVEIK
In the case of B3, the Kd (hIL10R1) is reported as 117 pM.

B4: h49G08 (antibody, V domains shown)
VH: EVQLVESGGGLVQPGGSLRLSCAASGFTFSDYYMYWVRQAPGKGLEWVSTISDGGSYTYYPDSVKGRFTISRDNAKNNLYLQMNSLRAEDTAVYYCARGYYYGLFTYWGQGTLVTVSS
VL: DIQMTQSPSSLSASVGDRVTITCRASQDVNTGLNWYQQKPGQAPKLLIYWASSRQSGVPSRFSGSGSGTDFTLTISSLQPEDFATYYCQQHYSTPYTFGQGTKLEIK
Work on B4 yielded a Kd (cynoIL10) of less than 1 pM.

B5: hu49G08 (antibody, V domains shown)
VH: EVQLVESGGGLVQPGGSLRLSCAASGFTFSDYYMYWVRQAPGKGLEWVSTISDGGSYTYYPDSVKGRFTISRDNAKNNLYLQMNSLRAEDTAVYYCARGYYYGLFTYWGQGTLVTVSS
VL: DIQMTQSPSSLSASVGDRVTITCRASQDVNTGLNWYQQKPGQAPKLLIYWASSRQSGVPSRFSGSGSGTDFTLTISSLQPEDFATYYCQQHYSTPYTFGQGTKLEIK
B5 gave a Kd (Cyno IL10) of 110 pM.

B6: 49G08_H1L2 (antibody, V domains shown)
VH: EVQLVESGGGLVQPGGSLRLSCAASGFTFSDYYMYWVRQAPGKGLEWVSTISDGGSYTYYPDSVKGRFTISRDNAKNNLYLQMNSLRAEDTAVYYCARGYYYGLFTYWGQGTLVTVSS
VL: DIQMTQSPSSLSASVGDRVTITCRASQDVNTGLNWYQQKPGQAPKLLIYWASSRQSGVPSRFSGSGSGTDFTLTISSLQPEDFATYYCQQHYSTPYTFGQGTKLEIK
B6 showed a Kd [1] of 19.9 pM and a Kd [2] of 160 pM.

— patent US20260234240A1 (published 2026)
